Measured values from patent US20260234247A1 (published 2026).
Changes are numbered by the printed parent chain. Each block holds one binder with its values, some of them ahead of it.

Assays:
human LILRB1 Variant 3 = molecular target: T1, human LILRB1 Variant 3 (human, UniProt Q8NHL6 24-458, limits assumed); experiment: ELISA (FIG. 12C)
T1 construct: protein bought from Kactusbio, LLC

human LILRB1 Variant 2 = molecular target: T2, human LILRB1 Variant 2 (human, UniProt Q8NHL6 24-458, limits assumed); experiment: ELISA (FIG. 12B)
T2 construct: protein bought from Kactusbio, LLC (Cat: LIL-HM2V1 and LIL-HM2V2 for Variant 2 and 3)

human LILRA3 = molecular target: T3, human LILRA3 (human, UniProt Q8N6C8 24-439); experiment: ELISA, OD450, antibody at 200 nM; + = 2-fold over ISO
T3 construct: bought protein coated for ELISA; also called hLILRA3
Method: (§1) To further confirm binding affinity, selected clones were assayed in ELISA or FACS in a range of testing concentrations.

human LILRB5 = molecular target: T4, human LILRB5 (human, UniProt O75023 24-458); experiment: as above
T4 construct: bought protein coated for ELISA; also called hLILRB5
Method: as §1

human LILRB3 = molecular target: T5, human LILRB3 (human, UniProt O75022 24-443); experiment: as above
T5 construct: bought protein coated for ELISA; also called hLILRB3
Method: as §1

human LILRA2 = molecular target: T6, human LILRA2 (human, UniProt Q8N149 24-449); experiment: as above
T6 construct: bought protein coated for ELISA; also called hLILRA2
Method: as §1

human LILRA1 [1] = molecular target: T7, human LILRA1 (human, UniProt O75019 17-461, limits assumed); experiment: as above
T7 construct: bought protein coated for ELISA; also called hLILRA1
T7 sequence (O75019 17-461 limits assumed): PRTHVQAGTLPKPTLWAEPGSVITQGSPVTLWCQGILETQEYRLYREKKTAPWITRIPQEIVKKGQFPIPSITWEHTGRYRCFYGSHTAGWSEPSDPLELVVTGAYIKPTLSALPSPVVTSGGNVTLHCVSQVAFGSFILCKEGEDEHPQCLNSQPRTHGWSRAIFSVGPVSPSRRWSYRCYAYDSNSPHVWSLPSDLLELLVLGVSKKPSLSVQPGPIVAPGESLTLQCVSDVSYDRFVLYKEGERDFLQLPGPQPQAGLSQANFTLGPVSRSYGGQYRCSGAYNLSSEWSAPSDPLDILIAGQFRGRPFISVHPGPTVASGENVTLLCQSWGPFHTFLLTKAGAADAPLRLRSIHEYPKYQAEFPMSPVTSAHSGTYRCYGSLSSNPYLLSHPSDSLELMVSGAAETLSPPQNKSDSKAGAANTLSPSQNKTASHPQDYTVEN
Method: as §1

human LILRA1 [2] = molecular target: T8, human LILRA1 (human, UniProt O75019 17-461, limits assumed); experiment: ELISA, antibody at 200 nM, OD450; + = 2-fold over ISO
T8 construct: Bought protein; also called hLILRA1
T8 sequence (O75019 17-461 limits assumed): as above
Method: as §1

human LILRB4 = molecular target: T9, human LILRB4 (human, UniProt Q8NHJ6 22-259); experiment: as above
T9 construct: Bought protein; also called hLILRB4
Method: as §1

Biotinylated LILRB1 [3] = molecular target: T10, Biotinylated LILRB1 (UniProt Q8NHL6 24-458, limits assumed, biotinylated (sites not given)); experiment: epitope binning ELISA, coated 1 ug/ml; competitor LK-RB1-31 at 20 ug/ml
Biotinylated LILRB1 [4] = molecular target: T10, Biotinylated LILRB1; experiment: epitope binning ELISA, coated 1 ug/ml; competitor LK-RB1-12 at 20 ug/ml
Method: (§2) Binding epitope of a subset of anti-LILRB1 and anti-LILRB2 antibodies was analyzed by epitope binning ELISA. Briefly, a panel of testing antibodies were coated onto ELISA plate. 50 ul/well Biotinylated LILRB1 or LILRB2 and 50 ul/well of competing antibodies were added to the coated plate and incubated at 37° C. for 1 hour. After Streptavidin-HRP (1:5000) incubation and TMB development, the plates were read at 450 nm using Molecular device spectra max plus384.

Biotinylated LILRB1 [5] = molecular target: T10, Biotinylated LILRB1; experiment: epitope binning ELISA, coated 1 ug/ml; competitor LK-RB1-9 at 20 ug/ml
Method: as §2

Biotinylated LILRB1 [6] = molecular target: T10, Biotinylated LILRB1; experiment: epitope binning ELISA, coated 1 ug/ml; competitor 15G8 at 20 ug/ml
Method: as §2

Biotinylated LILRB1 [7] = molecular target: T10, Biotinylated LILRB1; experiment: epitope binning ELISA, coated 1 ug/ml; competitor LK-RB1-16 at 20 ug/ml
Method: as §2

Biotinylated LILRB1 [8] = molecular target: T10, Biotinylated LILRB1; experiment: epitope binning ELISA, coated 1 ug/ml; competitor LK-RB1-47 at 20 ug/ml
Method: as §2

Biotinylated LILRB1 [9] = molecular target: T10, Biotinylated LILRB1; experiment: epitope binning ELISA, coated 1 ug/ml; competitor LK-RB1-33 at 20 ug/ml
Method: as §2

Biotinylated LILRB1 [10] = molecular target: T10, Biotinylated LILRB1; experiment: epitope binning ELISA, coated 1 ug/ml; competitor hz73D1.v1 at 20 ug/ml
Method: as §2

human LILRA1 [11] = molecular target: T11, human LILRA1 (human, UniProt O75019 17-461, limits assumed); experiment: Octet off-rate ranking;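 note: antibody dissociation rate constants against cynomolgus LILRB2 plus human LILRB1, LILRB2, LILRA1 and LILRA2, measured on an Octet instrument to rank binding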
T11 construct: also called hLILRA1
T11 sequence (O75019 17-461 limits assumed): as above
From the text: (§3) Binding affinity of anti-LILRB1 and anti-LILRB2 antibodies against human LILRB1, LILRB2, LILRA1, LILRA2 and cynomolgus LILRB2 was ranked by measuring dissociation rate constant (Kdis) using the Octet system.

human LILRB1 = molecular target: T12, human LILRB1 (human, UniProt Q8NHL6 24-458, limits assumed); experiment: Octet off-rate ranking;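 note: antibody dissociation rate constants against cynomolgus LILRB2 plus human LILRB1, LILRB2, LILRA1 and LILRA2, measured on an Octet instrument to rank binding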
T12 construct: also called hLILRB1
From the text: as §3

human LILRA4 = molecular target: T13, human LILRA4 (human, UniProt P59901 24-446); experiment: ELISA, OD450, antibody at 200 nM; + = 2-fold over ISO
T13 construct: bought protein coated for ELISA; also called hLILRA4
T13 sequence (P59901 24-446 limits assumed): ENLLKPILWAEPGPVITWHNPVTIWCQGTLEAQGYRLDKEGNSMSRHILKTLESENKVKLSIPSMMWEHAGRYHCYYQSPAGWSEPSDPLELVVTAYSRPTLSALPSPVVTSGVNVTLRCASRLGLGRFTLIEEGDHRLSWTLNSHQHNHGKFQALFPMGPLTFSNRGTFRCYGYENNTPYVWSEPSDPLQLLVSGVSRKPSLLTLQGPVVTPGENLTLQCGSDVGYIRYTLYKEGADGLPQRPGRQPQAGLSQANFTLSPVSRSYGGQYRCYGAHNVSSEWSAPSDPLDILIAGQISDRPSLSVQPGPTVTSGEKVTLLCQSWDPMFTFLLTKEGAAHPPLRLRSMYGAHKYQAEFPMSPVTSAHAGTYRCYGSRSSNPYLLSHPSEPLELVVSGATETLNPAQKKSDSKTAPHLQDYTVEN
Method: as §1

T10 sequence (Q8NHL6 24-458 limits assumed): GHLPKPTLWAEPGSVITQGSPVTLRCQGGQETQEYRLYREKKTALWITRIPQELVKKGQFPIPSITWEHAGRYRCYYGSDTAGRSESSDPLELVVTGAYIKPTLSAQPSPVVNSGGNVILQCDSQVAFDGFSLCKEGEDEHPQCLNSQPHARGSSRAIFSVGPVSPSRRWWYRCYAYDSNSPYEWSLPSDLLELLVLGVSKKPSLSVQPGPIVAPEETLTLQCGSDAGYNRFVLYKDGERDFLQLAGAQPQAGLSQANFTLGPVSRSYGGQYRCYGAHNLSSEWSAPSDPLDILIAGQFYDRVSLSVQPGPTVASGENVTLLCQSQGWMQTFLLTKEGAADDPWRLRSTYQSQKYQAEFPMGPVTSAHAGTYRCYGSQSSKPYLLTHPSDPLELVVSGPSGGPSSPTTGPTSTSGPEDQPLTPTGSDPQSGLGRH
T6 sequence (Q8N149 24-449 limits assumed): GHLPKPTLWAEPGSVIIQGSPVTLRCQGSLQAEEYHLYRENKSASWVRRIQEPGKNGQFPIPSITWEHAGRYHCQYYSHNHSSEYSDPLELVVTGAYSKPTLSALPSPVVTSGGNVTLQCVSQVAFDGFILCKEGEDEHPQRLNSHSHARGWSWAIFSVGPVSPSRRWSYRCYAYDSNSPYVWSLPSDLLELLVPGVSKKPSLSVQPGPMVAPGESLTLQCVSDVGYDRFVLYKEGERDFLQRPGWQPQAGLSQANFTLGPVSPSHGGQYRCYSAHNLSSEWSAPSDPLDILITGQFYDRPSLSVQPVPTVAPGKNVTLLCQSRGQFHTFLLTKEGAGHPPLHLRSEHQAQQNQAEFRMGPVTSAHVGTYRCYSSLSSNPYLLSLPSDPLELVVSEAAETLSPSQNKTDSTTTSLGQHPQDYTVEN
T4 sequence (O75023 24-458 limits assumed): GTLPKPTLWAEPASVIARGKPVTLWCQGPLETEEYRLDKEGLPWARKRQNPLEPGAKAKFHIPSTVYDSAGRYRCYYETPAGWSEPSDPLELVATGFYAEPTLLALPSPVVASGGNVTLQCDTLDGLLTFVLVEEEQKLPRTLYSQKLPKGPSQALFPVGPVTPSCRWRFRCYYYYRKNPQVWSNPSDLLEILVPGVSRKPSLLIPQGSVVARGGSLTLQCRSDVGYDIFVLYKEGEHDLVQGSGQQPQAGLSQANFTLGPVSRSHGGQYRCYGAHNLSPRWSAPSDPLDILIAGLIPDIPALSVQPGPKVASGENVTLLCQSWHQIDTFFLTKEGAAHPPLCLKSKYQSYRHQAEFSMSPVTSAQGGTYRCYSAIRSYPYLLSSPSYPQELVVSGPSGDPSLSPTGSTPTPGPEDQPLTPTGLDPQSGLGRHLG
T2 sequence (Q8NHL6 other isoform, or with tags, fused parts or gaps mutant limits assumed): as the sequence (Q8NHL6 24-458 limits assumed) above, with L45P, A70T, I119T, S132I counted along it
T1 sequence (Q8NHL6 other isoform, or with tags, fused parts or gaps mutant limits assumed): as the sequence (Q8NHL6 24-458 limits assumed) above, with L45P, I119T, S132I counted along it
T3 sequence (Q8N6C8 24-439 limits assumed): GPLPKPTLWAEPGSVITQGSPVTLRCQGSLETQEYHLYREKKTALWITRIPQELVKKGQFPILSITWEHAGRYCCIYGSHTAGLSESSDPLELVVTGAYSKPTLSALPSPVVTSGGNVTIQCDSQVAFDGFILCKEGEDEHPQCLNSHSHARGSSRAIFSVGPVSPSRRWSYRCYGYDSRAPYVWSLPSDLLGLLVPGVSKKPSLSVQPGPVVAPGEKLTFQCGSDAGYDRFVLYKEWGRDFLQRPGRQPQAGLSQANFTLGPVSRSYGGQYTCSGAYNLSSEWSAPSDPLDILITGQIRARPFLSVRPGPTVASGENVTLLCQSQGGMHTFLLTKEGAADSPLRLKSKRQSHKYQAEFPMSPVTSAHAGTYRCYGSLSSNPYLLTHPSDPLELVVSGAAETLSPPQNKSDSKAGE
T12 sequence (Q8NHL6 24-458 limits assumed): as the sequence (Q8NHL6 24-458 limits assumed) above

B1: LK-RB1-9.h1 (antibody, human IgG4, kappa, V domains shown)
VH: QVQLVQSGSELKKPGASVKVSCKASGYTFTTYGMSWVRQAPGQGLEWMGWINTYSGVPTYADDFKGRFVFSLDTSVSTAYLQISSLKAEDTAVYYCARRRRTYHGYLSFDYWGQGTTVTVSS
VL: DIQMTQSPSSLSASVGDRVTITCETSENIYGALNWYQQKPGKAPKLLIYGATNLAEGVPSRFSGSGSGTDFTFTISSLQPEDIATYYCQNVLNTPWTFGGGTKLEIKR
notes: humanized LK-RB1-9
binding result (human LILRB1 Variant 3): binds | binding result (human LILRB1 Variant 2): binds

B2: LK-RB1-4 (antibody, human IgG4 S228P, kappa, V domains shown)
VH: QVQLQQPGAELVKPGASVKLPCKTSGYTFTSYWMHWVKQRPGRGLEWIGRIDPHYSGTKYNEKFKNKATMTVDTPSSTAYMQLSSLTSEDSAVYYCARFDGDPYYFDYWGPGTTLTVSS
VL: DIVMTQSQKFMSTSVGDRVSVTCKASQNVGTNVAWYKQKAGQSPKAVIYSASYRYSGVPDRFTGSGSGTDFTLSISNVQSEDLAEYFCQQYNNNPFTFGSGTKLEIKR
notes: anti-LILRB1 antibody
binding result (human LILRA3): binds

B3: LK-RB1-35 (antibody, human IgG4 S228P, kappa, V domains shown)
VH: DVQLQESGPGLEKPSQSLSLTCSVTGYSITRGYQWNWIRQFPGNKLEWMGYISYDGSNNYNPSLKNRISITRDASKNQFFLKLNSVTTEDTATYYCARRSYNSIDYWGQGTTLTVSS
VL: DIVLTQSPATLSVTPGDSVSLSCRASQSISSNLHWYQQKSHESPRLLIKYASQSISGIPSRFSGSGSGTDFTLSINSVETEDFGMYFCQQSNSWPLTFGAGTKLELKR
notes: anti-LILRB1 clone from mouse hybridoma
binding result (human LILRB5): binds | binding result (human LILRB3): binds

B4: LK-RB1-36 (antibody, human IgG4 S228P, kappa, V domains shown)
VH: B3 VH with T71I, A74T
VL: B3 VL with S31N
notes: as for B3
binding result (human LILRB5): binds | binding result (human LILRB3): binds

B5: LK-RB1-47 (antibody, human IgG4 S228P, kappa, V domains shown)
VH: QIQLVQSGPELKKPGETVKISCKASGYTFTTYGMSWVKQAPGKGLKWMGWINTYSGVPTYTDDFKGRFAFSVETSASTAYLQINNLKNEDTATYFCARRERDFYGNIFFPYWGQGSLVTVSA
VL: DIQMTQTTSSLSASLGDRVTISCRASQDISNYLNWYQQKPDGTVKLLIYYTSRIHSGVPSRFSGSGSGTDFSLTISNLDQEDIATYFCQQGHTLPWTFGGGTKVEIKR
notes: as for B3
binding result (human LILRA2): binds | binding result (human LILRA1 [1]): binds

B6: LK-RB1-33 (antibody, human IgG4 S228P, kappa, V domains shown)
VH: QIQLVQSGPELKKPGDTVKISCKASGYTFTSYGMNWVKQAPGEGLKWMGWINTYSGVPTYGDDFKGRFAFSLETSASTAYLQINNLENEDTATYFCARRGRDSVVGHFDVWGTGTTVTVSS
VL: DIVMTQSHKFMSTSVGDRVSITCKASQDVNTAVAWYQQKPGQSPKLLIYWASTRHTGVPDRFTGSGSGTDFTLTISSVQAEDLALYYCQQHYTIPFTFGSGTRLEIKR
notes: as for B3
binding result (human LILRA2): binds

B7: LK-RB2-12 (antibody, human IgG4 S228P, kappa, V domains shown)
VH: QIQLVQSGPELKKPGETVKISCKASGYTFTTYGMSWVKQTPGKGLKWMGWINIYSGVPTYADDFKGRFVFSLEISASTAHLQINNLKNEDTATYFCARRKDYSGHCFDYWGQGTTLTVSS
VL: DIVLTQSPASLAVSPGQRATISCRASESVDTYGISFMHWYQQKPGQPPKLLIYRASNLESGIPARFSGSGSRTDFTLTINPVETDDVAIYYCQQSKKDPYTFGGGTKLEIKR
binding result (human LILRA1 [2]): binds | binding result (human LILRB4): binds

B8: LK-RB2-15 (antibody, human IgG4 S228P, kappa, V domains shown)
VH: B7 VH with T40A, I53V, V69A, H80Y, N88D
VL: B7 VL with P15L, I21F, I89T, D98E
binding result (human LILRA1 [2]): binds | binding result (human LILRB4): binds

Now from value to binder:

Inhibition % (Biotinylated LILRB1 [3]): 41.6% | Inhibition % (Biotinylated LILRB1 [4]): 82.8% | Inhibition % (Biotinylated LILRB1 [5]): 57.4% | Inhibition % (Biotinylated LILRB1 [6]): -3.83% | Inhibition % (Biotinylated LILRB1 [7]): 61.2% | Inhibition % (Biotinylated LILRB1 [8]): 46.9% | Inhibition % (Biotinylated LILRB1 [9]): 23.5% | Inhibition % (Biotinylated LILRB1 [10]): 31.4% | koff (human LILRA1 [11]): 7.52e-06 s⁻¹ | koff (human LILRB1): 5.18e-05 s⁻¹
B9: hz73D1.v1 (antibody, human IgG4 S228P, kappa, V domains shown)
VH: QVQLVQSGAEVKKPGASVKVSCKASGYTFTDYYINWVRQAPGQGLEWMGNVNPNDGGTTYNQKFKGRVTMTTDTSTSTAYMELRSLRSDDTAVYYCARREIYFYGTIYYYAMDYWGQGTLVTVSS
VL: DIQLTQSPSFLSASVGDRVTITCRASESVDYYGNSFMYWYQQKPGKAPKLLIYFASNLESGVPSRFSGSGSGTEFTLTISSLQPEDFATYYCQQNNEDPWTFGGGTKVEIKR

binding result (human LILRA4): binds
B10: LK-RB1-2 (antibody, human IgG4 S228P, kappa, V domains shown)
VH: QIQLVQSGPELKKPGETVKISCKASGYTFTTYGVSWVKQAPGKGLKWMGWINTYSGVSTYSDDFKGRFAFSLETSASTAYLQIINLKNEDAATYFCSRRRRTYDGYLSFDYWGQGTTLTVSS
VL: DIQMTQSPGSLSASVGETVTITCGASENIYGALNWFQRKPGKSPQLLIYGATNLADGMSSRFSGSGSGRQYSLQISSLRPDDVATYYCQNVLTTPWTFGGGTKVEIKR
notes: anti-LILRB1 antibody

binding result (human LILRA3): binds
B11: LK-RB1-3 (antibody, human IgG4 S228P, kappa, V domains shown)
VH: QVQLQQPGAELVKPGTSVNLSCKASGYTFTSYWIHWVKQRPGRGLEWIGRINPYSSGTRYNEKFKNKATLTVDKPSSTAYMQLTSLTSEDSAVYYCARFDGAPDYFDFWGQGTTLTVSS
VL: DIVMTQSQKFMPTSVGDRVNVTCKASQNVGINVAWYQQKLGQSPKALIYSASYRYSGVPDRFTGSGSGTDFTLTINSVQSEDLADYFCQQYNNYPFTFGSGTKLEIKR
notes: anti-LILRB1 antibody

binding result (human LILRA1 [2]): binds
B12: LK-RB2-24 (antibody, human IgG4 S228P, kappa, V domains shown)
VH: QIQLVQSGPEVKKPGETVKISCKASGYTFTTYGMSWVKQAPGKGLKWMGWLNIYSGVPAYADDFKGRFAFSLESSASTAYLQINNLKNEDTATYFCARRENYDGYGMDYWGQGTSVTVSS
VL: DIVMTQSPATLSVTPGDRVSLSCRASQSISDYLHWYQQKSHESPRLLIKYASQSISGIPSRFSGSGSGSDFTLSINSVEPEDVGVYYCQNGHSFPYTFGGGTKLEIKR

binding result (human LILRA2): binds | binding result (human LILRA1 [1]): binds
B13: LK-RB1-59 (antibody, human IgG4 S228P, kappa, V domains shown)
VH: QIQLVQSGPELKKPGETVKISCKASGYTFTTYGMSWVKQAPGKGLKWMGWINTYSGVPTYADDFKGRFAFSLETSASTAYLQINNLKNEDTATYFCARRRIYYGNKGYAMDYWGQGTSVTVSS
VL: DIQMTQSPASLSVSVGETVTITCRASENIYSNLVWYQQKQGKSPQLLVYTATNLADGVPSRFSGSGSGTQFSLKINSLQSEDFGSYYCQHFWGTPWTFGGGTKLEIKR
notes: as for B3

binding result (human LILRA1 [1]): binds
B14: LK-RB1-55 (antibody, human IgG4 S228P, kappa, V domains shown)
VH: EVKLVESGGGLVQPGGSLKLSCAASGFTFSDYYMYWVRQTPEKRLEWVAYISNGGDITFYPDTVKGRFTISRDNARSTLYLQMSRLKSEDTAIYYCASATTEVGAMDHWGQGTSVTVSS
VL: DIVMTQSQKFMSTTVGDRVSITCKASQNVGTAVAWYQQKPGKSPKLLIYAASNRYTGVPDRFTGSGSGTDFTLTISNMQSEDLADYFCQQYSSYRTFGGGTNLEIKR
notes: as for B3

binding result (human LILRB1 Variant 3): binds | binding result (human LILRB1 Variant 2): binds
B15: LK-RB1-16.h3 (antibody, human IgG4, kappa, V domains shown)
VH: QVQLQESGPGLVKPSETLSLTCTVSGFSLISNAISWIRQPPGKGLEWLGVIWGDGNTIYHSALRSRLTISKDTSKNQVFLKLSSVTAADTAVYYCAKANWDGYYFDYWGQGTTVTVSS
VL: DIQMTQSPSTLSASVGDRVTITCHASQSVDFWLNWYQQKPGKAPKLLISKASNLHTGVPSRFSGSGSGTEFTLTISSLQPDDFATYYCQQGQSYPLTFGQGTKLEIKR
notes: humanized LK-RB1-16
